The labels stand for the following.
B1: TPR t1 (parent)
chain: GACCAAUCUGCCCUCAGAGCUCGAGAACAUCUUCGGAUGCAGAGGAGGCAGGCUUCGGUGGCGCGAUAGCGCCAACGUCCUCAACCUCCAAUGCAUCCCACCACAUGAUGAUGCCUGAAGAGCCUUGGUUUUUUG

21 variants from the RNAGym collection of RNA variant scans (doi:10.1073/pnas.2313332121) can be followed below.

In this series the parent is B1. The experiment in a line: polymerase ribozyme fitness, log enrichment relative to wild type (log ratio); higher = more active; in vitro selection for triplet polymerase activity. An outline of the steps: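 Both subunits of a heterodimeric triplet polymerase ribozyme were given their own mutant library, built by PCR and transcribed. Each library was annealed with a biotinylated primer, the partner subunit and triplets, incubated frozen at −7 °C, and its extended constructs gel-excised, captured on streptavidin beads and amplified by RT-PCR, all in one round done in triplicate. Fitness is the logarithm of genotype enrichment relative to wild-type enrichment, with replicates averaged by inverse-variance weighting. That logarithm is base 2, and Illumina-sequenced genotypes needed ≥10 input reads and ≥1 read per output.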
Consider GACCAAUCUGCCCUCAGAGCUCGAGAACAUCUUCGCAUGCAGAGGAGGCAGGCUUCGGUGGCGCGAUAGCGCCAACGUCCUCAACCUCCAAUGCAUCCCACCACAUGAUAAUGCCUGAAGAGCCUUGGUUUUUUG, for which the “polymerase ribozyme fitness (log ratio)” value is -1.62.

For GACCAUUCUGCCCUUAGAGCUCGAGAACAUGUUCGGAUGCAGAGGAGGCAAGCAUCGGUGGCGCGAUAGCGCUAACGUCCUCAACCUCCAAUGCAUCCCACCACAUGAUGAUGCUUGAAGAGCCUUGGUUUUUUG, the “polymerase ribozyme fitness (log ratio)” value is -5.8.

As for GACCAAUCUGCCCUCAGAGAUCGAGAACAUCUUCGGAUGCAGAGGAGGCAGGCUUCGGUGGCGCGAUAGCGCCAACGUCCUCAAGCUCCAAUGCAUCCCACCACAUGAUGAUGCCUGAAGAGCCUUGGUUUUUUG, the “polymerase ribozyme fitness (log ratio)” value was -3.75.

Take GACCAAUCUGCCCUCAGAGCUCGAGAACAUCUUCGGAUGCAGAGGAGGUAGGCUUCGGUGGCGCGAUAGCGCCAACGUCCUCAACCUCCACUGCAUCCCACCACAUGAUGAUGCCUGAAGAGACUUGGUUUUUUG: the “polymerase ribozyme fitness (log ratio)” value is -1.62.

In the case of GACCAAUCUGCCCUCAGAGCUCGAGAACAUCUUCGGAUGCAGAGGAGGCAGGCUUCGGUGGCGCGAUAGCGCCAACGCCCUCAACCUCCAGUUCAUCCCACCACAUGAUGAUGCCUGAAGAGCCUUGGUUUUUUG, the “polymerase ribozyme fitness (log ratio)” value was -2.35.

With GACCAAUCUGCCCUCAGAGCUCGAGAACAUCUUCGGAUGCAGAGGAGGCAGGCUUCGGUGGCACGAUAGCGCCAACGUCCUCAACCUCCAAUGCAUCCCACCACAUGAUGAGGCCUGAAGAGCCUUGGUUUUUUG, the “polymerase ribozyme fitness (log ratio)” value is -1.1.

Turning to GACCGAUCUGCCCUCAGAGCUCGAGAACAUCUUCGGAUGCAGAGGAGGCAGGCUUCGGUGGCGCGAUAGCGCCAACGUCCUCAACCUCCAAUACAUCCCACCACAUGAUGAUGCCUGAAGAGCCUUGGUUUUUUG, the “polymerase ribozyme fitness (log ratio)” value was -1.17.

As to GACCAAUCUGCCCUCAGAGCUCGAGAACAUCUUCGGAUGCAGAGUAGGCAGGCUUCGGUGACGCGAUAGCGCCAACGUCCUCAACCUUCCAUGCAUCCCACCACAUGAUGAUACCUGAAGAGCCUUGGUUUUUUG, the “polymerase ribozyme fitness (log ratio)” value is -3.

As to GACCAAUCUGCCCUCAGAGCUCGAGAACAUCUUCGGAUGCAGGGGAGGCAGGCUUCGGUGGCGCGAUACCGCCAACGUCCUCAACCUCCCAUGCAUCCCACCACAUGAUGAUGCCUGAAGAGCGUUGGUUUUUUG, the “polymerase ribozyme fitness (log ratio)” value was -0.889.

As to GACCAAUCUGCCCUUAGAGCUCGAGAACAUCUUCGGAUGCAGAGGAGGCAAGCUUCGGUGGCGCGAUAGCGGCAACGUCCUCAACCUCCAAUGCAUCCCACCACAUGAUGAUGCCUGAAGCGCCUUGGUUUUUUG, the “polymerase ribozyme fitness (log ratio)” value is -2.34.

Consider GACCAAUCUGCCCUCAGAGCUCGAGAACAUCUUCGGAUGCAGAGGAGGCAGACUUUGGUGGCGCGAUAGCGCCAACGUCCUCAACCUCCAAUGCAUCCCACCACAUGAUGAUGCCUGAAGAGCCUUGGUUUUUUG, for which the “polymerase ribozyme fitness (log ratio)” value was -0.699.

Take GACCAAUCUGCCCUCAGAGCUCGAGAACAUCUUCGGAUGCAGAGGUGGCAGGCUUCGGUGGCGCGAUAGCGCGAACUUCCUCAACCUCCAAUGCAUCCCAACAUAUGAUGAUGCCUGAAGAGCCUUGGUUUUUUG: the “polymerase ribozyme fitness (log ratio)” value is -2.96.

For GACCAAUCUGCCCUCAGAGCUCGAGAACAUCUUCGGAUGCAGAGGAGGCAGGCUUCGGUAGCGCGAUAGCGCCAACGUCCUCAACCUCCAAUGCAUCCCAACACAAGAUGAUGCCUGAUGAGUCUUGGUUUUUUG, the “polymerase ribozyme fitness (log ratio)” value was -4.23.

On to GACCAAUCUGCCCUCAGAGCUCGAGAACAUCUUCGGAUGCAGAGGAGGCAGCCUUCGGUGGCGCGAUAGCGCCAACGUCCUCAACCUCCAAUGCAUCCCACCACAUGAUGAUGCCUGAACAGCCUUGGUUUUUUG, for which the “polymerase ribozyme fitness (log ratio)” value is -0.0985.

In the case of GACCAAUCUGCCCUCAGAGCUCGAGAACAUCUUCGGAUGCAGAGGAGGCAGGCUUCGGUGGCGCGAUAGCGCCUACGUCCUCAACUUCCAAUGCAUCCCACCACAUGAUGAUGCCUGAAGAGCCUUGGUUUUUUG, the “polymerase ribozyme fitness (log ratio)” value is -0.818.

Turning to GACCAAUCUGCCCUCAGAGCUCGAGAACAUCUUCGGAUGCAGAGGAGGCAGGCUUCGGUGGCGCGAUAGCGGCAACGUCCUCAACAACCAAUGCAUCCCACCACAUGAUGAUGCCUGAAGAGCCUUGGUUUUUUG, the “polymerase ribozyme fitness (log ratio)” value is -4.6.

With GACCAAUCUGCCCUCAGAGCUCGAGAAUAUCUUCGGAUGCAGAGGAGGCAGGCUUCGGUGGCGCGAUAGCGCCAACGUCCUCAACCUCCAAUGCAUCCCACCACAUGAUGAUGCCUGAAGAGCAUUGGUUUUUUG, the “polymerase ribozyme fitness (log ratio)” value amounted to 0.0271.

Consider GACCAAUCUGCCCUCAGAGCUCGAGAACAUCUUCGGAUGCAGAGGAGGCAGGCUUCGGUGGCGCGAUAGCGCCAACGUCCUCAACCUCCAAUGCAUCCCACCACAUGAUGAUGCCUGAAAAGCCUUGAUUUUUUG, for which the “polymerase ribozyme fitness (log ratio)” value was -0.497.

GACCAAUCUGCCCUCAGAGCUCGAGAACAUCUUCGGAUGCACAGGAGGCAGGCUUCGGUGGCUCGAUAGCGCCAACGUCCUCAACCUCCAAUGCAUCCCACCACAUGAUGAUGCCUGAAGAGUCUUGGUUUUAUG: the “polymerase ribozyme fitness (log ratio)” value was -1.98.

With GACCAAUCUGCCCUCAGAGCUCGAGAACAUCUUCGGAUGCAGAGGCGGCAGGCUUCGGUGGCGCGAUAGCGGCAACGUCCUCAACCUCCAAUGCAUCCCACCACAUGAUGAUGCCUGAAGAGCCUUGGUUUUUUG, the “polymerase ribozyme fitness (log ratio)” value was -2.19.

Take GACCAAUCUGCCCUCAGAGCUCCAGAACCUCUUCGGAUGCAGAGGAGCCAGGCUUCGGUGGCGCGAUAGCGCCAACGUCCUCAACCUCCAAUGCAUCCCACCACAGGAUGAUGUCUGAAGAGCCUUGGUUUUUUG: the “polymerase ribozyme fitness (log ratio)” value is -8.24.
